According to a protein production outcome set (Wang et al. 2014):

Experiment: label from the status in PepcDB records
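Also: failed if final PepcDB status was selected cloned or expressed and not failed if soluble or beyond.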

Sequence | protein production
MFFKQFYDKHLSQASYLIGCQKTGEAMIIDPIRDLSSYIRVADEEGLTITHAAETHIHADFASGIRDVAIKLNANIYVSGESDDTLGYKNMPNHTHFVQHNDDIYVGNIKLKVLHTPGHTPESISFLLTDEGAGAQVPMGLFSGDFIFVGDIGRPDLLEKAVKVEGSSEIGAKQMFKSIESIKDLPDYIQIWPGHGAGSPCGKSLGAIPTSTLGYEKQTNWAFSENNEATFIDKLISDQPAPPHHFAQMKKINQFGMNLYQPYTVYPATNTNRLTFDLRSKEAYHGGHIEGTINIPYDKNFINQIGWYLNYDQEINLIGDYHLVSKATHTLQLIGYDDIAGYQLPQSKIQTRSIHSEDITGNESHILDVRNDNEWNNGHLSQAVHVPHGKLLETDLPFNKNDVIYVHCQSGIRSSIAIGILEHKGYHNIINVNEGYKDIQLS | not failed
MNSYKYLKYSQYAKQALIFINFLAVTYYVFVYLFASKYIVAKNLSHVLLDKLDIVPIAPENIFFTTLFFFAIFLIVMFYRESILNKKEEINDWLIVAEIVLMILTFISLQFSYNGLFLLVFADIFYSYANFYNVKEQKYWLLFIILGFSMLLISNFDLLSLVMRLPSLDVYISFFPSGSRLIVMFIKNFLYSLNIIVFLISLVAYIMYSVAENHKIEEELRMAARANIELNDYVSLAEKIAEDKERKRIAREIHDTLGHALTGISAGIDAVTVLVDFDPNHAKSQLKNVSDVVREGIQDVRRSLEKMRPGALEKGSLKEALLKMIADYEKLSKLQVSLHYDWDNIDLDITKEDIIFRVIQETITNSLRHGHARHVSIDMLNEDFYIIKIKDDGIGCEDFKLGYGLTQMQERLAIIGGYADFESDDGFQTMVRIPKKKGEE | failed
MKIIGFACQWCAYQAADLAGSLKMKYPESIRLLRVPCSGRVNAEFILKALLSGADGVFVAGCPISECHYRSGNRIAKTKVALLKRLLPEFGLESGRVEFLQVSSADARKFVEFAKEFDERIRKLG | failed
MVVVCASHIQPAIICRFTWLRFLMEIILIRHGKPTSANNPVLNAVDFTKWVRRYNFSDVSTNSRPDSILDEYKSHYIVSSDLERAIHSASIYTGQSPELTSKLYREMEIPRYKFPLRFKAMTWVYINRAFWMLGLKGSFESYRQAKIRAELASDHLVELAREQDKVILFGHGYLNLHIRRSLIKKGWKLNSKSNGFWGISSLEG | failed
MFKLVFKQYKCKSTSPDLTEVVKIDDCVVKGNDQEKSDNNIVQRLSISNVESLQTMPGVKSPKDWRTYTLTNHPGIIVIRNPFSERGRRYWSARCLRDFPRTPNIVNLNERLFDESVRSDWWKQLNLCSDGVEFQRIKSAMRWTTFGYHHNWDTKIYDEEMQSPFPEDLSSLCGLFAQALGYADFKPEAAIVNYYPVGSTLSGHTDHSEPNKSAPLFSFSFGQTAIFLIGGRSLEEKPTAIYLQSGDVMIMSGESRLCYHAVPRIIKTQASATLSLIIEDVDNADIKTRTIDKDLFHDVGNPQFWEPFSRYMDDSRININIRQVLNPGDVKL | failed
MPFTLHLRSRLPSAIRSLILQKKPNIRNTSSMAGELRPASLVVLPRSLAPAFERFCQVNTGPLPLLGQSEPEKRMLPPQGAISETRMGHPQFWKYEFGACTGSLASLEQYSEQLKDMVAFFLGCSFSLEEALEKAGLPRRDPAGHSQAGAYKTTVPCVTHAGFCCPLVVTMRPIPKDKLEGLVRACCSLGGEQGQPVHMGDPELLGIKELSKPAYGDAMVCPPGEVPVFWPSPLTSLGAVSSCETPLAFASIPGCTVMTDLKDAKAPPGCLTPERIPEVHHISQDPLHYSIASVSASQKIRELESMIGIDPGNRGIGHLLCKDELLKASLSLSHARSVLITTGFPTHFNHEPPEETDGPPGAVALVAFLQALEKEVAIIVDQRAWNLHQKIVEDAVEQGVLKTQIPILTYQGGSVEAAQAFLCKNGDPQTPRFDHLVAIERAGRAADGNYYNARKMNIKHLVDPIDDLFLAAKKIPGISSTGVGDGGNELGMGKVKEAVRRHIRHGDVIACDVEADFAVIAGVSNWGGYALACALYILYSCAVHSQYLRKAVGPSRAPGDQAWTQALPSVIKEEKMLGILVQHKVRSGVSGIVGMEVDGLPFHNTHAEMIQKLVDVTTAQV | failed
MVTSSSMRRCRGALSLSFWIFLVLRSVLSRPVFGAAAGPAVQSARQCSASRGTGESDPPPFQPTLRLFPPSRRRRSYCRAMTPSRPSPDFPDGGFVQVRGARQHNLKDISVKVPRDALVVFTGVSGSGKSSLAFGTLYAEAQRRYLESVSPYARRLFNQAGVPDVDAIDGLPPAVALQQARGTPTARSSVGSVTTLSNLLRMLYSRAGDYPPGQGIVYAEGFSPNTPEGACPECHGLGRVYTVTEDSMVPDPSLTIRERAVAAWPQAWGGQNQRDILVTLGIDVDVPWRELPEETRHWILFTDEQPVVPVYPGLTPAETQRALKKKMEPSYMGTFSSARRHVLHTFANTESASMKKRVQGYMISEECPLCHGKRLRQEALNVTFAGLDITELSRLPLARVSELLRPYAEEREPGHAERVKNRPEQAIALQRMAADLVKRLDVLLHLGLGYLGLDRSTPTLSPGELQRLRLATQLYSNLFGVVYVLDEPSAGLHPADTEALLSALENLKRGGNSLFVVEHDLDVIRRADWLVDVGPEAGEKGGEILYSGPPEGLKHVPESQTGQYLFADRHTEPHTPREPAGWLELNGVTRNNLDNLDVRFPLGVMTSVTGVSGSGKSTLVSQALVDALAAHFGQPVNPDPEDDEDPADHTAGSARLGGDLAQITRLVRVDQKPIGRTPRSNMATYTGLFDQVRKLFAATPLAKKRGYNAGRFSFNVKGGRCEHCQGEGWVMVELLFLPSVYAPCPVCHGTRYNAETLEVEYRGKNIADVLALTVDEAHDFFADESAIFRALDTLREVGLGYLRLGQPATELSGGEAQRIKLATELQRSGRGGTVYVLDEPTTGLHPADVERLQRQLVKLVDAGNTVIAVEHKMQVVAASDWVLDIGPGAGEDGGRLVAQGTPAEVAQAAGSVTAPYLRAALR | failed
MFVRRFEEVLALPTAMTALLGCQLLGELIVRALHLPIPGPVLGLLLLLAWLLLGTTVTLPVSSSLPEVARGLLNHMSLLFIPAGVGIILHGQTLADQWLPISVSLFGSTALALIATALTFRAVCKIMERSKAKKEGGR | failed
MTPNEDLIEIFEDEEISPSLTAKTWPILIVDDDQDVHDVSRLALRGVRLLDYDLETLHAYSAAQARAILSSRSDIAVALLDVVMEREDAGLDLVRWIRSDPARDLLRIVLRTGQPGYAPEATVIQDYDINDYRTKSELNRGRLISILTTALRSYRQMAVIAASRDGLDKIVRASADLLASPSMAIFAEGVLTQLAGLLGTERSGIVLARRNRRPGATASMAMTGDEGFVLAAAGPLSADIGRPLSDIGDHQTAEILRRTLESRRSSFDHGSMALYIATPNGDSLAVLMEVAKTLGDTDRKLVEVFCVNMAAGFDTISLFEQISLQAFHDEATGLPNLAACQSLIDQYLQRRQPVAVTFFSLEGFSAISDTLGRVIGDRMIGLLANAFRHRLQERGEVFRVGQETLATVIGGPVDQVGPLADQLAGDFRAGLPLDSMTLPVSFSHGTSVSTSEHDTAQILVQRAGIAMQKARNIKRGGGLTYAVAMEEEIRAHIGVISKLGAGVVSEAFVAVFQPKIRLADRSCHGGEALVRWRDGDGTMIAPSLFIPAAETSGHIVDIGYSVFRQSCAMIRSLKVSQDDARIAVNLSVRQMREPDLIDKLVSIAAEEGVATTRLKLEITESIVIDDLTHTVSLLKALKDKGFLLALDDFGTGYSSLSYLRSLPIDTLKIDRSFVSGLAEQADMRKIVGLIIGLGHELGFDITAEGVETEEEARIVTEMGCFTAQGYLFSKPLSAEDFLVFARTHAGARQTSGGSLSAEGCIRARDA | failed
MQSPEKIDPTWEDSVIDSFISFVRSYDGDFTCIYKLADTVSDEYSLQKIIDFLSSTPQGKQAFQKRPQLGVVDLPKLHQLPTDTLGYVYADQMLQNNLQPLQSHEIDNDYQFFKTHITETHDLWHIVTGADTSILGEIQLEAFYVSQLYASRFWLALLAKNLLKAVIYDIELSTPYMDAISTGWVMAKQAKPLFGLEWNLLWEKPLADVRTSLNIILPVNLEHHHHHH | not failed
MPEVIFNGPAGRLEGRYQPSKEKSAPIAIILHPHPQFGGTMNNQIVYQLFYLFQKRGFTTLRFNFRSIGRSQGEFDHGAGELSDAASALDWVQSLHPDSKSCWVAGYSFGAWIGMQLLMRRPEIEGFMSIAPQPNTYDFSFLAPCPSSGLIINGDADKVAPEKDVNGLVEKLKTQKGILITHRTLPGANHFFNGKVDELMGECEDYLDRRLNGELVPEPAAKRIR | not failed
MIYPDELAVITSKFELELSETDRNKVHENVSTVSGRDFFMSIFEGLKMKDKILEYWDFRSSDYHTEYAHCMDEEMDVWKSVFSEILLTDKKVRAVEVGTGPGILAISLAAMGHDVTGVDLSENMLEKAAANAREKGVNVLLMRGDAEDIPLKDGEYDFVLSKYLLWTLPQPDKFLGECCRLLKDGGIMMIIDGLWFHNPDGTEKKSSRYERFDELYGDVKPNLPFAKENTPERIADLAESHGFEDLTWRFLDDYDAFLERNDPSGHAAAYIKPPHMILAKKKVRNS | failed
MDSSSISSLLEDLKHSDALVREQATKKLWRIWFQQKGMYGLEKIDQSQKLLDAGEITEAEVMLTQLIQEQPDFAEAWNRRAFLYYSMGEYQKSLADCQMVIQINPVHFGALHGIGLCYAALGKYAKAIKAFKRALEIQPYSLVNQKLILECTFRLSLEHHHHHH | failed
MATSSTQLLLSSSSLFHSQITKKPFLLPATKIGVWRPKKSLSLSCRPSASVSAASSAVDVNESVTSEKPTKTLPFRIGHGFDLHRLEPGYPLIIGGIVIPHDRGCEAHSDGDVLLHCVVDAILGALGLPDIGQIFPDSDPKWKGAASSVFIKEAVRFRRLP | failed
MKRNSSIDLMKSCAIFFVISVHFLLNSGFYDMTIHSTLAIFWIGIRTILITCVPLFLVATGFLMNRKELSAQYVLGIVPVIISYIGISLLVWGVLSLVGKGSDFSTAINGIFDYSTDSYSWYVEMYLGLYLFIPLLNIIWNYKKEIKNYHLYIVFIASLLTFLPSLLNSFGKVIPDYWQICYPVSYYFIGAYLYTYQNEIKKISIGKLVTAFLSALTIFTLTDTFASWNQEFQWLDHNDYFGYQTAIMTVLVIAILWRTPIPKWSVRLLKALSTATLTIYLISDLTDQFVYGFFKHEIPNLSQRVIAGPIIIPVAFTSAALLGIFVGKVLNIPFKRKKERKEN | failed
MAESLITKKAIAGGLMELCQHKRFEKISIADITNICGLNRQTFYYHFTDKYDLLTWTYENDFFHCLADGITLENWDKHVLKMLESIKENADFYKNTVSADASILSFCFSKLTNSLFMDLFEKIDTNGAVNEADRVFYAEFFSYGCSGVLIKWITRGFKEAPETIANQLFRLAKDTEFLANSMYRENLEHHHHHH | not failed
MSLNVQTVAVIGSGTMGAGIAEVAASHGHQVLLYDISAEALTRAIDGIHARLNSRVTRGKLTAETCERTLKRLIPVTDIHALAAADLVIEAASERLEVKKALFAQLAEVCPPQTLLTTNTSSISITAIAAEIKNPERVAGLHFFNPAPVMKLVEVVSGLATAAEVVEQLCELTLSWGKQPVRCHSTPGFIVNRVARPYYSEAWRALEEQVAAPEVIDAALRDGAGFPMGPLELTDLIGQDVNFAVTCSVFNAFWQERRFLPSLVQQELVIGGRLGKKSGLGVYDWRAEREAVVGLEAVSDSFSPMKVEKKSDGVTEIDDVLLIETQGETAQALAIRLARPVVVIDKMAGKVVTIAAAAVNPDSATRKAIYYLQQQGKTVLQIADYPGMLIWRTVAMIINEALDALQKGVASEQDIDTAMRLGVNYPYGPLAWGAQLGWQRILRLLENLQHHYGEERYRPCSLLRQRALLESGYESEGHHHHHH | not failed
MKQMSITLIFIMAFTIIIHAVETSSYSIRLAGVRLKKIAVALSVVGMVLLISRTSNLLQAFLIGGIVDEAKLDSSIDLEHIIRLVLLSASIGTLLAIILYPTLTKLFGYVIQNFETDGSFIRMMKTNNIQKLKYTKKYVRFPKLEMIHRLRIGGIPKRIMLINMFATAIYTAGVLSALYASFLNPDYATNASTASGLVNGFATILLTVLLDPRIALLTERALQSENGAESMSKMYGWLMISRLFGTLLAQLLFVPGAYWILWIIELIH | failed
